Laboratory results reported in patent publication US20240392002A1 (EXELIXIS, published 2024).

Tests used:
[1] = molecular target: T1, extracellular domain of human ROR1 (human, UniProt Q01973 30-406); assay: BLI (Octet QK384), monovalent format: antibody captured on Fc biosensor, untagged antigen as analyte
T1 construct: bought protein; biotinylated in the bivalent assay format; also called Acro Cat. No. RO1-H522y

[2] = molecular target: T1, extracellular domain of human ROR1; assay: BLI (Octet), IgG1, two-fold serial dilution 200-12.5 nM
Excerpt: To measure binding affinity in ROR binder discovery campaigns, the VL and VH domains identified in the phage screen described above were formatted into a bivalent monospecific native human full-length IgG1 architecture and immobilized to a biosensor on an Octet (Pall ForteBio) biolayer interferometer. Soluble ROR antigens, including the extracellular domains of ROR1 (Acro Cat. No. RO1-H522γ) and ROR2 (Acro Cat. No. R02-H52E5), as well as the individual ROR1 Frizzled (Acro Cat. No. RO1-H5222), Ig-like (Acro Cat. No. RO1-H5221), and Kringle (Acro Cat. No. RO1-H5223) domains, were then added to the system and binding measured.
The VH and VL sequences above were formatted into a bivalent monospecific native human full-length IgG1 architecture.

[3] = molecular target: T1, extracellular domain of human ROR1; assay: BLI, monovalent format, IgG on Fc biosensor
[4] = molecular target: T2, extracellular domain of human ROR2 (human, UniProt Q01974 34-403); assay: BLI, monovalent format
T2 construct: bought protein; biotinylated in the bivalent assay format; also called Acro Cat. No. RO2-H52E5
T2 sequence (Q01974 34-403 limits assumed): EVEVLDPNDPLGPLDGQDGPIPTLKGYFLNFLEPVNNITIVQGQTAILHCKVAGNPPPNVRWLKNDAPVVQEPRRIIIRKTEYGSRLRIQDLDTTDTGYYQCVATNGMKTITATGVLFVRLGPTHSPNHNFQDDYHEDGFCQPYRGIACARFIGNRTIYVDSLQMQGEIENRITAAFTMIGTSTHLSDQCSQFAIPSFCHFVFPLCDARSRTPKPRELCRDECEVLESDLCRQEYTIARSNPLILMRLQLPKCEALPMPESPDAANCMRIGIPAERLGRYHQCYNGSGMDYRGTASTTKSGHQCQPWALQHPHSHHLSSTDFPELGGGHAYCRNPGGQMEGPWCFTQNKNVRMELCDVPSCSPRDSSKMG
Method: (§1) More specifically, monovalent binding affinity analysis was performed using the Octet^QK 384 (ForteBio) using Fc biosensors. Unlabeled B-body™ is first bound to the Fc biosensor at a concentration to yield approximately 1 nm response (typically 10 to 50 nM protein). The biosensors are then equilibrated in 10× Kinetic Buffer (ForteBio) to establish a baseline. The untagged monomer of each antigen is contacted with the antibody-coated sensors at concentrations ranging from 50 nm to 0.75 nM. The association response and dissociation were monitored and recorded. The resulting Kₒₙ and Koff was fit using the Octet analysis software.
(§2) Next, the binding of the antibody to ROR1 and ROR2 was assessed using the monovalent and bivalent BLI binding assessments as described in Example 24.

[5] = molecular target: T1, extracellular domain of human ROR1; assay: BLI, monovalent format
Method: as §1, §2

[6] = molecular target: T2, extracellular domain of human ROR2; assay: BLI (Octet QK384), monovalent format: antibody captured on Fc biosensor, untagged antigen as analyte
Method: as §1, §2

[7] = molecular target: T1, extracellular domain of human ROR1; assay: as above; remark: listed apart in the source
Method: as §1, §2

[8] = molecular target: T3, CD3 on a cynomolgus T cell line (cynomolgus); assay: flow cytometry on a cynomolgus T cell line, fluorescently labeled secondary antibody, MFI against antibody concentration
T3 construct: whole, on cells; also called cynomolgus CD3
T3 sequence (Q95LI5 22-198, chain 1 of 3): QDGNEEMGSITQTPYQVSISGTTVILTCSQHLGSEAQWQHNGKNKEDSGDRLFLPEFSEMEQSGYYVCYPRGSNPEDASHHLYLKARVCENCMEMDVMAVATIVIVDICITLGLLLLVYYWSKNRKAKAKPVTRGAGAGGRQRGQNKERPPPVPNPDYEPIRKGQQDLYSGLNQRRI
T3 sequence (Q95LI8 22-171, chain 2 of 3, further chain): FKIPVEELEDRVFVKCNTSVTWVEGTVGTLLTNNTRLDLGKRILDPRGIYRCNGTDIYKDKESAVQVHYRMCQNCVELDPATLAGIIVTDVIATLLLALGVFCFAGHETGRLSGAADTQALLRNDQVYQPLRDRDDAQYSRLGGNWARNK
T3 sequence (Q95LI7 23-181, chain 3 of 3, further chain): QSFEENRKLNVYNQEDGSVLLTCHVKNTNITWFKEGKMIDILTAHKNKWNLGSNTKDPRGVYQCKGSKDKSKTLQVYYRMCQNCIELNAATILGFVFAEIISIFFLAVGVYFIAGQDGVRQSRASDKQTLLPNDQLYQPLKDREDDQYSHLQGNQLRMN
Excerpt: (§3) In this Example, the binding to human and cynomolgus CD3 was further characterized by assessing cell binding to Jurkat T cells, a Jurkat CD3 knock-out cell line, or a cynomolgus T cell line.

CD3 on Jurkat T cells = molecular target: T4, CD3 on Jurkat T cells (human, UniProt P07766 23-207; P04234 22-171); assay: flow cytometry on Jurkat T cells, fluorescently labeled secondary antibody, MFI against antibody concentration
T4 construct: also called human CD3; copies: 1 + 1
T4 sequence (P07766 23-207 limits assumed, chain 1 of 2): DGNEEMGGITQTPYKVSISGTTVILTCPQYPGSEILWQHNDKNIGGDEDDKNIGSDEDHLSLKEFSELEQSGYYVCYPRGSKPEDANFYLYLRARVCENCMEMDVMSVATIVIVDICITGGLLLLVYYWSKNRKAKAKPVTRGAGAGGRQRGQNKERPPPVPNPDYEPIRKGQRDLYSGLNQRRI
T4 sequence (P04234 22-171 limits assumed, chain 2 of 2): as the sequence (Q95LI8 22-171, chain 2 of 3, further chain) above, with V5I, K15N, V20I, T32S, N33D, N34I, A64T, N74S, L83V, R141H counted along it
Excerpt: as §3

ROR1 on tumor cell lines = ROR1 on tumor cell lines (human, UniProt Q01973 30-937); assay: cell-based or functional assay
Chain of ROR1 on tumor cell lines (Q01973 30-937 limits assumed): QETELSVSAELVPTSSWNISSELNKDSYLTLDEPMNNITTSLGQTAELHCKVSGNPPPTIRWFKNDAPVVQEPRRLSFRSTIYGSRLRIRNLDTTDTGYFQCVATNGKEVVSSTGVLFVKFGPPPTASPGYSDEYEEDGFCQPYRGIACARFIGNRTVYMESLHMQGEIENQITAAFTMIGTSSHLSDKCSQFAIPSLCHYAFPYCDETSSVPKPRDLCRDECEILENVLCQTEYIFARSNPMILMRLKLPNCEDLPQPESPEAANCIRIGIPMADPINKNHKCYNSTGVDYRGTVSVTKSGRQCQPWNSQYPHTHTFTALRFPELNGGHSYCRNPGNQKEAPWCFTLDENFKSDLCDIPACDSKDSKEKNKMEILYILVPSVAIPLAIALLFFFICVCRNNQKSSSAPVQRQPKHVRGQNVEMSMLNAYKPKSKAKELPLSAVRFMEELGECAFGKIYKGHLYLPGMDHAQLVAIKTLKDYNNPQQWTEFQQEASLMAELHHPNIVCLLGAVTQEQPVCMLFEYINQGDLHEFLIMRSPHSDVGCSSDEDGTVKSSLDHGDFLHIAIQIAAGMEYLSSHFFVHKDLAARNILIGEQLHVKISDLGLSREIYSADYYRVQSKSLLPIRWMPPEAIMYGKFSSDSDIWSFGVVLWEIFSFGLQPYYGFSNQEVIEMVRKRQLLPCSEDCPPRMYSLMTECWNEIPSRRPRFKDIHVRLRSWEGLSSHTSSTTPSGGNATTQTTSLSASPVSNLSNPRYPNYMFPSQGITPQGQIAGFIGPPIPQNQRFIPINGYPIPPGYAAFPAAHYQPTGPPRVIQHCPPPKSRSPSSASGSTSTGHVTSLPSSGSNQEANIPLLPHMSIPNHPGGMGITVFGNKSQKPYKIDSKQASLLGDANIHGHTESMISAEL

CTLA4 = molecular target: T5, CTLA4 (UniProt P16410 36-161, limits assumed); assay: Octet; antigen immobilized, B-Body as analyte
T5 sequence (looked up): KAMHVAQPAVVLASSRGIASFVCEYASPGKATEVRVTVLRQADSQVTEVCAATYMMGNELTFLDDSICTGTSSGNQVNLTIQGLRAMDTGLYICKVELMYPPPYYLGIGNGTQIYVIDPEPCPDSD
Excerpt: In each instance, the antigen is immobilized and the B-Body is the analyte.

T1 sequence (Q01973 30-406 limits assumed): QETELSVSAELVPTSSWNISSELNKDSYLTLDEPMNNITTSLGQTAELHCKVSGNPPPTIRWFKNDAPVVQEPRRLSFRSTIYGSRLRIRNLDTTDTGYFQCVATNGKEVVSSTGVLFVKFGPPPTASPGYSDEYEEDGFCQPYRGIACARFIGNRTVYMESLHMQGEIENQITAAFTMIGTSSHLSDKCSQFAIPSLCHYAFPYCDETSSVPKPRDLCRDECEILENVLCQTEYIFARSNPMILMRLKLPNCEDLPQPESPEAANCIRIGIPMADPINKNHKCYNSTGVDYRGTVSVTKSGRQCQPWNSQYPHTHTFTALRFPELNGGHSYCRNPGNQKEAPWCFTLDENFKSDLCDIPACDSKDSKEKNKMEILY

B1: I2A-27 IgG1 (antibody, V domains shown)
VH: EVQLVESGGGLVQPGGSLRLSCAASGFTFKGYYIHWVRQAPGKGLEWVAAIYPYGGSTDYADSVKGRFTISADTSKNTAYLQMNSLRAEDTAVYYCARVYIYGVFDYWGQGTLVTVSS
VL: DIQMTQSPSSLSASVGDRVTITCRASQSVSSAVAWYQQKPGKAPKLLIYSASSLYSGVPSRFSGSRSGTDFTLTISSLQPEDFATYYCQQYYSSPRTFGQGTKVEIKR
notes: bivalent monospecific native human full-length IgG1; the Domain F / Domain A entries end with AS / RT of the junction to the constant domain; also called clone I2-A27; I2-A27 IgG antibody
koff [1]: 0.0026 s⁻¹ | kon [1]: 940000 M⁻¹ s⁻¹ | Kd [2]: 4.1 nM | koff [2]: 0.00185 s⁻¹ | kon [2]: 511000 M⁻¹ s⁻¹ | Kd [3]: 2.8 nM

B2: I2A-10 D54E Y55Q IgG (antibody, V domains shown)
VH: EVQLVESGGGLVQPGGSLRLSCAASGFTFSSYFIHWVRQAPGKGLEWVAGIYPSEGYTSYADSVKGRFTISADTSKNTAYLQMNSLRAEDTAVYYCARYYVSGMDYWGQGTLVTVSS
VL: DIQMTQSPSSLSASVGDRVTITCRASQSVSSAVAWYQQKPGKAPKLLIYSASSLQSGVPSRFSGSRSGTDFTLTISSLQPEDFATYYCQQYYYYPGTFGQGTKVEIKR
notes: bivalent monospecific IgG; the Domain F / Domain A entries end with AS / RT of the junction to the constant domain; also called I2-A10 D54E Y55Q IgG antibody
Kd [4]: < 1 pM | Kd [5]: 0.7 nM | koff [6]: < 1e-07 s⁻¹ | kon [6]: 140000 M⁻¹ s⁻¹ | koff [7]: 0.00039 s⁻¹ | kon [7]: 550000 M⁻¹ s⁻¹

B3: SP34-89 humanized antibody (antibody, V domains shown)
VH: EVQLVESGGGLVQPGGSLRLSCAASGFTFNTYAMNWVRQAPGKGLEWVARIRSKYNNYATYYADSVKGRFSISRDDSKNTAYLQMNSLRAEDTAVYYCVRHGNFGNSYVSWFAYWGQGTLVTV
VL: QAVVTQEPSLTVSPGGTVTLTCRSSTGAVTTSNYANWVQQKPGQAPRGLIGGTNKRAPWTPARFSGSLLGGKAALTITGAQAEDEADYYCALWYSNLWVFGGGTKLTVL
EC50 (read off the curve) [8]: ~700 pM | EC50 (read off the curve) (CD3 on Jurkat T cells): ~600 pM

B4: I2A-10 BC1 1×2 B-body (I2A-10 x SP34-89) (bispecific antibody)
chain 1: not shown
chain 2: EVQLVESGGGLVQPGGSLRLSCAASGFTFSSYFIHWVRQAPGKGLEWVAGIYPSDGYTSYADSVKGRFTISADTSKNTAYLQMNSLRAEDTAVYYCARYYSGMDYWGQGTLVTVSSASPREPQVYTDPPSRDELTKNQVSLTCLVKGFYPSDIAVEWESNGQPENNYKTTPPVLDSDGSFFLYSKLTVDKSRWQQGNVFSCSVMHEALHNHYTQKSLSLSGEC
chain 3: DIQMTQSPSSLSASVGDRVTITCRASQSVSSAVAWYQQKPGKAPKLLIYSASSLYSGVPSRFSGSRSGTDFTLTISSLQPEDFATYYCQQYYYYPGTFGQGTKVEIKRTPREPQVYTLPPSRDELTKNQVSLKCLVKGFYPSDIAVEWESNGQPENNYKTTPPVLDSDGSFFLYSKLTVDKSRWQQGNVFSCSVMHEALHNHYTQKSLSLSKSCTASSGGSSSGQAVVTQEPSLTVSPGGTVTLTCRSSTGAVTTSNYANWVQQKPGQAPRGLIGGTNKRAPWTPARFSGSLLGGKAALTITGAQAEDEADYYCALWYSNLWVFGGGTKLTVLGRTVAAPSVFIFPPSDEQLKSGTASVVCLLNNFYPREAKVQWKVDNALQSGNSQESVTEQDSKDSTYSLSSTLTLSKADYEKHKVYACEVTHQGLSSPVTKSFNRGECDKTHTCPPCPAPEAAGGPSVFLFPPKPKDTLMISRTPEVTCVVVDVSHEDPEVKFNWYVDGVEVHNAKTKPREEQYNSTYRVVSVLTVLHQDWLNGKEYKCKVSNKALKAPIEKTISKAKGQPREPQVCTLPPSREEMTKNQVSLSCAVKGFYPSDIAVEWESNGQPENNYKTTPPVLDSDGSFFLVSKLTVDKSRWQQGNVFSCSVMHEALHNHYTQKSLSLSPGK
chain 4: EVQLVESGGGLVQPGGSLRLSCAASGFTFNTYAMNWVRQAPGKGLEWVARIRSKYNNYATYYADSVKGRFSISRDDSKNTAYLQMNSLRAEDTAVYYCVRHGNFGNSYVSWFAYWGQGTLVTVSSASTKGPSVFPLAPSSKSTSGGTAALGCLVKDYFPEPVTVSWNSGALTSGVHTFPAVLQSSGLYSLSSVVTVPSSSLGTQTYICNVNHKPSNTKVDKKVEPPKSC
EC50, CD8+ T cell mediated killing of MDA-MB-231 (LDH) (ROR1 on tumor cell lines): 13 pM

B5: I2A-27 BC1 1×2 B-body (I2A-27 x SP34-89), Example 20 (bispecific antibody)
chain 1: not shown
chain 2: EVQLVESGGGLVQPGGSLRLSCAASGFTFKGYYIHWVRQAPGKGLEWVAAIYPYGGSTDYADSVKGRFTISADTSKNTAYLQMNSLRAEDTAVYYCARVYIYGVFDYWGQGTLVTVSSASPREPQVYTDPPSRDELTKNQVSLTCLVKGFYPSDIAVEWESNGQPENNYKTTPPVLDSDGSFFLYSKLTVDKSRWQQGNVFSCSVMHEALHNHYTQKSLSLSGEC
chain 3: DIQMTQSPSSLSASVGDRVTITCRASQSVSSAVAWYQQKPGKAPKLLIYSASSLYSGVPSRFSGSRSGTDFTLTISSLQPEDFATYYCQQYYSSPRTFGQGTKVEIKRTPREPQVYTLPPSRDELTKNQVSLKCLVKGFYPSDIAVEWESNGQPENNYKTTPPVLDSDGSFFLYSKLTVDKSRWQQGNVFSCSVMHEALHNHYTQKSLSLSKSCTASSGGSSSGQAVVTQEPSLTVSPGGTVTLTCRSSTGAVTTSNYANWVQQKPGQAPRGLIGGTNKRAPWTPARFSGSLLGGKAALTITGAQAEDEADYYCALWYSNLWVFGGGTKLTVLGRTVAAPSVFIFPPSDEQLKSGTASVVCLLNNFYPREAKVQWKVDNALQSGNSQESVTEQDSKDSTYSLSSTLTLSKADYEKHKVYACEVTHQGLSSPVTKSFNRGECDKTHTCPPCPAPEAAGGPSVFLFPPKPKDTLMISRTPEVTCVVVDVSHEDPEVKFNWYVDGVEVHNAKTKPREEQYNSTYRVVSVLTVLHQDWLNGKEYKCKVSNKALKAPIEKTISKAKGQPREPQVCTLPPSREEMTKNQVSLSCAVKGFYPSDIAVEWESNGQPENNYKTTPPVLDSDGSFFLVSKLTVDKSRWQQGNVFSCSVMHEALHNHYTQKSLSLSPGK
chain 4: EVQLVESGGGLVQPGGSLRLSCAASGFTFNTYAMNWVRQAPGKGLEWVARIRSKYNNYATYYADSVKGRFSISRDDSKNTAYLQMNSLRAEDTAVYYCVRHGNFGNSYVSWFAYWGQGTLVTVSSASTKGPSVFPLAPSSKSTSGGTAALGCLVKDYFPEPVTVSWNSGALTSGVHTFPAVLQSSGLYSLSSVVTVPSSSLGTQTYICNVNHKPSNTKVDKKVEPPKSC
EC50, CD8+ T cell mediated killing of MDA-MB-231 (LDH) (ROR1 on tumor cell lines): 8.2 pM

B6: bivalent bispecific B-Body “BC1” (bispecific antibody)
chain 1: not shown
chain 2: EVQLVESGGGLVQPGGSLRLSCAASGFTFSDYDIHWVRQAPGKGLEWVGDITPYDGTTNYADSVKGRFTISADTSKNTAYLQMNSLRAEDTAVYYCARLVGEIATGFDYWGQGTLVTVSSASPREPQVYTDPPSRDELTKNQVSLTCLVKGFYPSDIAVEWESNGQPENNYKTTPPVLDSDGSFFLYSKLTVDKSRWQQGNVFSCSVMHEALHNHYTQKSLSLSGEC
chain 3: not shown
chain 4: QVQLVESGGGVVQPGRSLRLDCKASGITFSNSGMHWVRQAPGKGLEWVAVIWYDGSKRYYADSVKGRFTISRDNSKNTLFLQMNSLRAEDTAVYYCATNDDYWGQGTLVTVSSASTKGPSVFPLAPSSKSTSGGTAALGCLVKDYFPEPVTVSWNSGALTSGVHTFPAVLQSSGLYSLSSVVTVPSSSLGTQTYICNVNHKPSNTKVDKKVEPPKSC
notes: A:F site for Antigen A, H:L site nivolumab variable domains (PD1)
binding result (CTLA4): no binding
